The target in data set [1] is T1, σ3 WT (REOV outer capsid protein) (Mammalian orthoreovirus, UniProt P07939 1-365).
T1 sequence: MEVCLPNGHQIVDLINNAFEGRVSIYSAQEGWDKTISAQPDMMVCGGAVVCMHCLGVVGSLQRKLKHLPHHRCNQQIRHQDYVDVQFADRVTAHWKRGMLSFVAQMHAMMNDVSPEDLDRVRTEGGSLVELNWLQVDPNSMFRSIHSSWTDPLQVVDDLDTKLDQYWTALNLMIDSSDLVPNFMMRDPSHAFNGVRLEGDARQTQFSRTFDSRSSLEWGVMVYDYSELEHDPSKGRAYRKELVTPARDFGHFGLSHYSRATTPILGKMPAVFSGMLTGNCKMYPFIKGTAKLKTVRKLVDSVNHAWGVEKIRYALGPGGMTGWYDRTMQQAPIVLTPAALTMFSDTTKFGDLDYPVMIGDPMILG
The experiment in a line: EMSA; no shift at any σ3 concentration tested; 5 nM R-loop; without DHX9; EMSA: 5 nM R-loop, 0.5% NP-40, 150 mM NaCl, 20 mM Tris-Cl pH 8.0, 0.5 mM EDTA, 37 °C 15 min; 6% native PAGE. The settings on record: protein: recombinant; tags: Flag; label: 5' Cy5.5 on RNA; three-strand R-loop, DNA duplex arms around an unpaired bubble; RNA nt 1-30 pair with ssDNA-2, 3' RNA overhang 30 nt.

The target of another data set is DHX9 (UniProt Q08211 1-1270). The data set can be described thus: EMSA; shift at 20 nM DHX9; 5 nM R-loop; no ATP or Mg2+ listed in binding buffer; EMSA: 5 nM R-loop, 0.5% NP-40, 150 mM NaCl, 20 mM Tris-Cl pH 8.0, 0.5 mM EDTA, 37 °C 15 min; 6% native PAGE. As to conditions: protein: recombinant; tags: Flag; label: 5' Cy5.5 on RNA; three-strand R-loop, DNA duplex arms around an unpaired bubble; RNA nt 1-30 pair with ssDNA-2, 3' RNA overhang 30 nt.
Sequence of DHX9 (Q08211 whole entry): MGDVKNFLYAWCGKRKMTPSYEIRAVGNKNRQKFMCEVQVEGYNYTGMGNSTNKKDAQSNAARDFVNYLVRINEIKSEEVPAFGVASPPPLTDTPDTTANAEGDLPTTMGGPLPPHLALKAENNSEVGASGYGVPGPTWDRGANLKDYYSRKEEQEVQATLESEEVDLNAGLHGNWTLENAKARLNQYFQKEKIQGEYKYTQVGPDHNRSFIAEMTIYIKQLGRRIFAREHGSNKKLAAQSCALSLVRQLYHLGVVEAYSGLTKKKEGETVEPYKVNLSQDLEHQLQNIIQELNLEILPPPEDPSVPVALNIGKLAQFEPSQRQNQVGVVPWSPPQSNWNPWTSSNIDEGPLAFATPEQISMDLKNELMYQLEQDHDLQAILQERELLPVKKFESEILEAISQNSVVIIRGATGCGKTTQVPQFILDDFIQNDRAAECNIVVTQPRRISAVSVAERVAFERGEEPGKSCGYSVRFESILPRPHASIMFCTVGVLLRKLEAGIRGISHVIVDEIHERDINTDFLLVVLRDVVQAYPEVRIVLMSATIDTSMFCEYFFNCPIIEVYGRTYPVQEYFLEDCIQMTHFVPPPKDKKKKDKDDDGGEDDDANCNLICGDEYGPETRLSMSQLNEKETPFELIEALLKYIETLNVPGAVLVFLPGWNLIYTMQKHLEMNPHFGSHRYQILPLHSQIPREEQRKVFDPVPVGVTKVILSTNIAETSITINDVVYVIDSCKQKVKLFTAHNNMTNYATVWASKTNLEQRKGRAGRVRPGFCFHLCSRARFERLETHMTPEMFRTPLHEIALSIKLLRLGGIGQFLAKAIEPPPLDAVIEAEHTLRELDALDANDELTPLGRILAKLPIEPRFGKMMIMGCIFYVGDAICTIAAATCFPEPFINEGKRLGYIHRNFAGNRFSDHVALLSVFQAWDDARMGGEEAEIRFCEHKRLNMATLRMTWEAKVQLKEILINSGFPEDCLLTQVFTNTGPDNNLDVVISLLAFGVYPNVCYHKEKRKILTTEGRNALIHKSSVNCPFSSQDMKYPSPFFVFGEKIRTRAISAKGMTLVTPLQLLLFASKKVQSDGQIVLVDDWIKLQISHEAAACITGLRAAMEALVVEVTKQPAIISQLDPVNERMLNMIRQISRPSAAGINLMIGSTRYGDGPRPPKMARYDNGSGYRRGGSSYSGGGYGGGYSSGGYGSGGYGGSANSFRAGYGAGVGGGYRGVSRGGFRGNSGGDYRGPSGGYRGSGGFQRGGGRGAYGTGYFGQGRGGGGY

B1: R-loop substrate with RNA 3' overhang (mixed)
DNA 1: CATTGCATATTTAAAACATGTTGGATCCCACGTTGCATGCTGATAGCCTACTAGAGCTGTATGAATTCAAATGACCTCTTATCAAGTGAC
DNA 2: GTCACTTGATAAGAGGTCATTTGAATTCATGGCTTAGAGCTTAATTGCTGAATCTGGTGCTGGGATCCAACATGTTTTAAATATGCAATG
RNA: GCACCAGAUUCAGCAAUUAAGCUCUAAGCCGCUGACGGCUCGAUGCUGAUCGUAGCAUCG
With B1, the results for the binding result (in data set [1]; with DHX9) were “no binding” and “binds”, respectively.

The record behind these values is publication PMC12915084, “A dsRNA Viral Transcriptional Regulator Evades Innate Immunity by Hijacking Host CoTranscription Factor DHX9”.
